In assay [1] the target is T1, flag-tagged human TEM8 on 293 cells (293/Flag-hTEM8) (human, UniProt Q9H6X2 33-564).
T1 construct: also called 293/Flag-huTEM8; 293/hFlag-TEM8
Description: immunofluorescence and flow cytometry on 293/Flag-hTEM8 cells.

Assay [2] addresses T2, mouse TEM8 on 293 cells (293/mTEM8) (mouse, UniProt Q9CZ52 31-562).
T2 construct: whole, on cells
As to the kind of experiment: flow cytometry on 293/mTEM8 cells (FIG. 8C).

For assay [3], the target named is T3, hTEM8(ED)-Fc fusion protein (human; mouse, UniProt Q9H6X2 33-321).
T3 construct: also called TEM8-Fc; human TEM8-Fc
T3 sequence: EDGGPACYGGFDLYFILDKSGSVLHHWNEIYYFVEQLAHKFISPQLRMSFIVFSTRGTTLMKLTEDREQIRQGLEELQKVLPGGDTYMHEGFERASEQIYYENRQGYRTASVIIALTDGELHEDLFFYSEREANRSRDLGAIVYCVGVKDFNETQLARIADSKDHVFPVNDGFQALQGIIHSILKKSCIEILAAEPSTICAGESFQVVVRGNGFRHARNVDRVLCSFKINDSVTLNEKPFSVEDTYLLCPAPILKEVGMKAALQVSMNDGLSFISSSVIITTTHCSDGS
Description: ELISA on biotinylated human TEM8-Fc captured on neutravidin. Background: ELISA stands for enzyme-linked immunosorbent assay.

Assay [4] deals with T1, flag-tagged human TEM8 on 293 cells …. Description: flow cytometry titration on 293/Flag-hTEM8 cells, FITC anti-mouse secondary (FIG. 9B).

B1: L1 Fab (Fab, V domains shown)
VH: QVQLVESGGGLVQPGGSLRLSCAASGFTFNSYAMSWVRQAPGKGLEWVSLISSGSSTYYADSVKGRFTISRDNSKNTLYLQMNSLRAEDTAVYYCARAGFKFDNWGQGTLVTVSS
VL: DIELTQPPSVSVAPGQTARISCSGDSIPNYSVSWYQQKPGQAPVLVIYADSNRPSGIPERFSGSNSGNTATLTISGTQAEDEADYYCQSYDNTSPDLVFGGGTKLTVLG
On to B1, for which the binding result in assay [1], in assay [2] and in assay [3] was “binds” throughout.

B2: L5-mIgG2a (antibody, V domains shown)
VH: QVQLVESGGGLVQPGGSLRLSCAASGFTFNSYGLSWVRQAPGKGLEWVSNISSNGSYTYYADSVKGRFTISRDNSKNTLYLQMNSLRAEDTAVYYCARAGYGLFDVWGQGTLVTVSS
VL: DIELTQPPSVSVAPGQTARISCSGDKLREYYVHWYQQKPGQAPVLVIYGDNKRPSGIPERFSGSNSGNTATLTISGTQAEDEADYYCSSWAGSRSGTVFGGGTKLTVL
notes: also called L5 full IgG
By EC50 is commonly meant the concentration giving half of the maximal effect. A low value points to a more potent agent. Regarding B2, the EC50 in assay [4] is 2.8 nM.

The record behind these values is patent US20140134179A1 (Novartis, published 2014).
